# From doi:10.1101/2023.03.09.531510
# Experiments:
# Assay in all cases: protein-fragment complementation
# Ygl242c = Ygl242c (UniProt P53066)
# Arc15 = Arc15 (UniProt P40518)
# Smi1 = Smi1 (UniProt P32566)
# Ssz1 = Ssz1 (UniProt P38788)
# Cdc10 = Cdc10 (UniProt P25342)
# Sla1 = Sla1 (UniProt P32790)
# Tif4631 = Tif4631 (UniProt P39935)
# Arc19 = Arc19 (UniProt P33204)
# Ssb1 = Ssb1 (UniProt P11484)
# Pab1 = Pab1 (UniProt P04147)
# Bbc1 = Bbc1 (UniProt P47068)
# Aim21 = Aim21 (UniProt P40563)
# Bzz1 = Bzz1 (UniProt P38822)
# Pkh2 = molecular target: Pkh2
# Vrp1 = Vrp1 (UniProt P37370)
# Chc1 = Chc1 (UniProt P22137)
# Arc40 = Arc40 (UniProt P38328)
# Ssb2 = Ssb2 (UniProt P40150)
# Arc18 = Arc18 (UniProt Q05933)
# Cmd1 = Cmd1 (UniProt P06787)
# Lsb3 = Lsb3 (UniProt P43603)
# Srv2 = Srv2 (UniProt P17555)
# Cdc3 = Cdc3 (UniProt P32457)
# Bmh1 = Bmh1 (UniProt P29311)
# Yor1 = Yor1 (UniProt P53049)
# Tdh3 = Tdh3 (UniProt P00359)
# Syp1 = Syp1 (UniProt P25623)
# Hek2 = Hek2 (UniProt P38199)
# Ste20 = Ste20 (UniProt Q03497)
# Sbp1 = Sbp1 (UniProt P10080)
# Ysc84 = Ysc84 (UniProt P32793)
# Sfk1 = Sfk1 (UniProt P35735)
# Osh2 = Osh2 (UniProt Q12451)
# Las17 = Las17 (UniProt Q12446)
# Hsp104 = Hsp104 (UniProt P31539)
# Myo5 = Myo5 (UniProt Q04439)
# Sac6 = Sac6 (UniProt P32599)
# Nap1 = Nap1 (UniProt P25293)
# Pan1 = Pan1 (UniProt P32521)
# Mid2 = Mid2 (UniProt P36027)
# Pfk1 = Pfk1 (UniProt P16861)
# Sla2 = Sla2 (UniProt P33338)
# Rvs167 = Rvs167 (UniProt P39743)
# Ssa1 = Ssa1 (UniProt P10591)
# Chain of UniProt P47068 (P47068 whole entry): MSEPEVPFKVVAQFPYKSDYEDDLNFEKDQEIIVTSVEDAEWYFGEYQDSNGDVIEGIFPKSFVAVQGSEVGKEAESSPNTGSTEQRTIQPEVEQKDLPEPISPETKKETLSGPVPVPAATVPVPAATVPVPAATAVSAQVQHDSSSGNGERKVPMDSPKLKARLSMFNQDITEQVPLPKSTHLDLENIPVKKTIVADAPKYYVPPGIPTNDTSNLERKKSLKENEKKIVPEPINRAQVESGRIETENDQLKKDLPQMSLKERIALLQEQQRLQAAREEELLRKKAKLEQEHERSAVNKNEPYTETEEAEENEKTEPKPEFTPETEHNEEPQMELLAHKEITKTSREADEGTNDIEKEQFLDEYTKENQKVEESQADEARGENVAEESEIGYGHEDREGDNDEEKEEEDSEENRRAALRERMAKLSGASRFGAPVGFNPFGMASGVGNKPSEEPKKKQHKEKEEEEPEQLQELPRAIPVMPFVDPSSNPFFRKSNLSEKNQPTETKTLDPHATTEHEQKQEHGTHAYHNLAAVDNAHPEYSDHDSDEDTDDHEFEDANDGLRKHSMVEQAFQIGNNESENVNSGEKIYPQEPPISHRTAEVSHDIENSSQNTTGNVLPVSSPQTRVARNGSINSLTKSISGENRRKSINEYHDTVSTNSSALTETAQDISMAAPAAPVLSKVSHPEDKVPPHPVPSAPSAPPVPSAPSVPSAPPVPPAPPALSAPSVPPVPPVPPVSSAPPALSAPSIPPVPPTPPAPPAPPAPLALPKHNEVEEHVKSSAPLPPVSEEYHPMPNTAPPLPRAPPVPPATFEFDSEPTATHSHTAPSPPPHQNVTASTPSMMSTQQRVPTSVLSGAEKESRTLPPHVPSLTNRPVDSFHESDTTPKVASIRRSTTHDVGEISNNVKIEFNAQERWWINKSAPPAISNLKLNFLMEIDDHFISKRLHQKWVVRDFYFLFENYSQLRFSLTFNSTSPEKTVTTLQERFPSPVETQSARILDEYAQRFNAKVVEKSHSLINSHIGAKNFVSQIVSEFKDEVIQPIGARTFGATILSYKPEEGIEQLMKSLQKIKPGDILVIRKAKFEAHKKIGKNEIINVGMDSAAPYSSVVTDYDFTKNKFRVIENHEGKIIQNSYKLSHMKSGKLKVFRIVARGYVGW
# Chain of UniProt P10080 (P10080 whole entry): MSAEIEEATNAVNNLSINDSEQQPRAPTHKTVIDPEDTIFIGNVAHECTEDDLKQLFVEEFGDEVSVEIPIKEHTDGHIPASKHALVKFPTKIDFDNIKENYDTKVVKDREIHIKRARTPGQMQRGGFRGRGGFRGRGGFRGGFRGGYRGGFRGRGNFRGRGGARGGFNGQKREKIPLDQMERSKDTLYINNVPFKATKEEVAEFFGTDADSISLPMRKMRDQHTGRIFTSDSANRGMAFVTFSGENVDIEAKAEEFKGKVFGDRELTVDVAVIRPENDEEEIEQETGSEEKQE
# Chain of UniProt P32566 (P32566 whole entry): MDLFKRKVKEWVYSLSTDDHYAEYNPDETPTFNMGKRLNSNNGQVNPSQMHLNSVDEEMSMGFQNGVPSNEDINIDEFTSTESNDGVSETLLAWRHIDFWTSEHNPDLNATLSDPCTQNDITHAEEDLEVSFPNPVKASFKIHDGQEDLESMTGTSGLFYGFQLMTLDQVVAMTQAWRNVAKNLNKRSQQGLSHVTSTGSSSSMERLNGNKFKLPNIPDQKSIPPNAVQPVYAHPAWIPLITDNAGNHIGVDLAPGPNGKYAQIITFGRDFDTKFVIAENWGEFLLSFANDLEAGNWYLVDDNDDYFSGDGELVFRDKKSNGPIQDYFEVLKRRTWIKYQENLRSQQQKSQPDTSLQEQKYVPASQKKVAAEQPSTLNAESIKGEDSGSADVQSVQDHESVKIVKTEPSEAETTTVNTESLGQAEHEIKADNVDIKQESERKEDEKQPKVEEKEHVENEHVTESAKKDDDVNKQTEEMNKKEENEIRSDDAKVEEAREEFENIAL
# Chain of UniProt P31539 (P31539 whole entry): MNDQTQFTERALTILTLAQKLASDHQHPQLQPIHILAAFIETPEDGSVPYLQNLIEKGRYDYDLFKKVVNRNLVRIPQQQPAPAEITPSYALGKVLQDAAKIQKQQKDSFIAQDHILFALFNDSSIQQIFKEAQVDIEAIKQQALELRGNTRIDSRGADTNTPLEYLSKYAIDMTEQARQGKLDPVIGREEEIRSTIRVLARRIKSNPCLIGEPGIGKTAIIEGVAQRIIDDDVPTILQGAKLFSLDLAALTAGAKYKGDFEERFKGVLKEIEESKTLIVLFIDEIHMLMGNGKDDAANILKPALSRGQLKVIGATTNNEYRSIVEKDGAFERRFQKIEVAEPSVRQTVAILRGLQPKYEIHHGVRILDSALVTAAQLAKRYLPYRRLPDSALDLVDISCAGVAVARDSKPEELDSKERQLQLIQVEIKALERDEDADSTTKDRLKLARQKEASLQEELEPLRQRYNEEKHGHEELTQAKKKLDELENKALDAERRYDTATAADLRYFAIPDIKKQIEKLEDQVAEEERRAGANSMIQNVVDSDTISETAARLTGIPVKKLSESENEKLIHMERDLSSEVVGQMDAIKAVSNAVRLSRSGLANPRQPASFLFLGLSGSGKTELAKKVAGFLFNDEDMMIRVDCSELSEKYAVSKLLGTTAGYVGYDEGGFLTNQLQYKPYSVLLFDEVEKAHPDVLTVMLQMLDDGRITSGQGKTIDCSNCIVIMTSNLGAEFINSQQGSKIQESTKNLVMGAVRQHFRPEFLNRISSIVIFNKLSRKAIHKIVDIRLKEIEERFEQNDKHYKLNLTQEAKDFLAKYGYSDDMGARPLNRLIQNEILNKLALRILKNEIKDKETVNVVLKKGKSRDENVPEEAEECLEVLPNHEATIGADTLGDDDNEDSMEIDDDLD
# Chain of UniProt P38822 (P38822 whole entry): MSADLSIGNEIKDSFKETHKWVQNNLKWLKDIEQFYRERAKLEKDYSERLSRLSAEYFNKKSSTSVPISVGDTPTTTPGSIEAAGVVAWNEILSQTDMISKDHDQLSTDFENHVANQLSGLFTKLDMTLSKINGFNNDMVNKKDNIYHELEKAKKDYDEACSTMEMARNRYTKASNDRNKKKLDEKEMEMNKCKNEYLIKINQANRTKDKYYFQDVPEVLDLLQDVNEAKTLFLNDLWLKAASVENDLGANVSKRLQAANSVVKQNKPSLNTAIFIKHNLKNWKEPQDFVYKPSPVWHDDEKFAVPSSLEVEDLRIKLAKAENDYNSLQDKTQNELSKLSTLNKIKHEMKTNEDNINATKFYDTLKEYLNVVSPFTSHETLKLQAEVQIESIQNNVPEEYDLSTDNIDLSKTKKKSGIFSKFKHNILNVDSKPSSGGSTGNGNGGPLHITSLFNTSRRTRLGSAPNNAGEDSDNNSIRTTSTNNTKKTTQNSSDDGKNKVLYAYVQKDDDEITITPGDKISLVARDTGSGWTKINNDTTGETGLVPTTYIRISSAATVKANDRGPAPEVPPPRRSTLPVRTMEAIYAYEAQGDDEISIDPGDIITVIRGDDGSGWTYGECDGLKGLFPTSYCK
# Chain of UniProt Q03497 (Q03497 whole entry): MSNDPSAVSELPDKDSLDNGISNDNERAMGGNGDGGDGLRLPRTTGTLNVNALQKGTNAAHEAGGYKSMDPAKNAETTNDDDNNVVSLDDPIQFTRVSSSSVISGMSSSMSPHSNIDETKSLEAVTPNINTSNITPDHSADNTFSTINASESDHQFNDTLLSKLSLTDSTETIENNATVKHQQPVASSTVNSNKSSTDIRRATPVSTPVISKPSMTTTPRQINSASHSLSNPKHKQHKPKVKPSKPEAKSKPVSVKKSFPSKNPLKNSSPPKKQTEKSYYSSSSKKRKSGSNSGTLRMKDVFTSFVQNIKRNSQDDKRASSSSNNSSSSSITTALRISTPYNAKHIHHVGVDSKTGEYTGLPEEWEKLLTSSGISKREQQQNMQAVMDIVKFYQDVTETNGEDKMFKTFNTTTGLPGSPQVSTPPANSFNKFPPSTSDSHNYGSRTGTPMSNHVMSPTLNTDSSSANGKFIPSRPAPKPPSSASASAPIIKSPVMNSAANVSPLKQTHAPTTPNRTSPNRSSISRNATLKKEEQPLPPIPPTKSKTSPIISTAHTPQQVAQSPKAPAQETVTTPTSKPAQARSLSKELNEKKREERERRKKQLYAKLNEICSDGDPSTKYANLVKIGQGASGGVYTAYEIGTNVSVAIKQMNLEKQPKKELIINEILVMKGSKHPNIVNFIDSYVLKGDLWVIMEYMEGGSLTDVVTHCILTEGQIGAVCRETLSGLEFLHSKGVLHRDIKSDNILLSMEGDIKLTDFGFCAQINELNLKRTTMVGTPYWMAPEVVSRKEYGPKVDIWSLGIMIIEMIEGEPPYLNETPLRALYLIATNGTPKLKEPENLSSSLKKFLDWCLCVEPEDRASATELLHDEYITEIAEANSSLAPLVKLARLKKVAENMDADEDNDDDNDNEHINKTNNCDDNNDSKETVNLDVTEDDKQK
# Chain of UniProt P38199 (P38199 whole entry): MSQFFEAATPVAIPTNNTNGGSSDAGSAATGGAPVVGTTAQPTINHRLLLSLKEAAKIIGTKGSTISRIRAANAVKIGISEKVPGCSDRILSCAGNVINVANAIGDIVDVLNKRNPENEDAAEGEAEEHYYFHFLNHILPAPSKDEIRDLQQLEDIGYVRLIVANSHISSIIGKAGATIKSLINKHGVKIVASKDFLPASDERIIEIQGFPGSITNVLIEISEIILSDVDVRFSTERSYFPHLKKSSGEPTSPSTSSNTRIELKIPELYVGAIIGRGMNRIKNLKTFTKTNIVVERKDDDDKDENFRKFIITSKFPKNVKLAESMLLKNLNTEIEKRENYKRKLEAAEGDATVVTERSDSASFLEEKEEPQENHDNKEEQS
# Chain of UniProt P06787 (P06787 whole entry): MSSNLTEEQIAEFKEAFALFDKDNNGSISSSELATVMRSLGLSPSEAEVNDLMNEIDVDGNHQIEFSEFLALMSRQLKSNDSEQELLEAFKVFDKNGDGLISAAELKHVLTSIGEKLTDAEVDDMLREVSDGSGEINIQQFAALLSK
substance,measurement,setting,value
Myo5 with SH3 AncB (from UniProt Q04439),interaction score,Ygl242c,0.942
same,interaction score,Arc15,0.898
same,interaction score,Smi1,0.562
same,interaction score,Ssz1,0.834
same,interaction score,Cdc10,0.416
same,interaction score,Sla1,0.568
same,interaction score,Tif4631,0.672
same,interaction score,Arc19,0.771
same,interaction score,Ssb1,0.941
same,interaction score,Pab1,0.797
same,interaction score,Bbc1,0.758
same,interaction score,Aim21,0.755
same,interaction score,Bzz1,0.818
same,interaction score,Pkh2,0.0795
same,interaction score,Vrp1,0.919
same,interaction score,Chc1,0.603
same,interaction score,Arc40,0.964
same,interaction score,Ssb2,0.932
same,interaction score,Arc18,0.878
same,interaction score,Cmd1,0.497
same,interaction score,Lsb3,0.637
same,interaction score,Srv2,0.649
same,interaction score,Cdc3,0.515
same,interaction score,Bmh1,0.823
same,interaction score,Yor1,0.488
same,interaction score,Tdh3,0.97
same,interaction score,Syp1,0.564
same,interaction score,Hek2,0.417
same,interaction score,Ste20,0.482
same,interaction score,Sbp1,0.832
same,interaction score,Ysc84,0.505
same,interaction score,Sfk1,0.733
same,interaction score,Osh2,0.755
same,interaction score,Las17,0.875
same,interaction score,Hsp104,0.767
same,interaction score,Myo5,0.901
same,interaction score,Sac6,0.823
same,interaction score,Nap1,0.52
same,interaction score,Pan1,0.926
same,interaction score,Mid2,0.854
same,interaction score,Pfk1,0.867
same,interaction score,Sla2,0.646
same,interaction score,Rvs167,0.567
Myo5 with SH3 SH3-depleted (from UniProt Q04439),interaction score,Ygl242c,0.95
same,interaction score,Arc15,0.877
same,interaction score,Smi1,0.547
same,interaction score,Ssz1,0.853
same,interaction score,Cdc10,0.289
same,interaction score,Sla1,0.27
same,interaction score,Tif4631,0.689
same,interaction score,Arc19,0.469
same,interaction score,Ssb1,0.94
same,interaction score,Pab1,0.813
same,interaction score,Bbc1,0.139
same,interaction score,Aim21,0.454
same,interaction score,Bzz1,0.34
same,interaction score,Vrp1,0.606
same,interaction score,Chc1,0.599
same,interaction score,Arc40,0.949
same,interaction score,Ssb2,0.946
same,interaction score,Arc18,0.775
same,interaction score,Cmd1,0.27
same,interaction score,Lsb3,0.339
same,interaction score,Srv2,0.398
same,interaction score,Cdc3,0.288
same,interaction score,Bmh1,0.821
same,interaction score,Yor1,0.144
same,interaction score,Tdh3,0.969
same,interaction score,Syp1,0.199
same,interaction score,Hek2,0.342
same,interaction score,Ste20,0.28
same,interaction score,Sbp1,0.852
same,interaction score,Ysc84,0.281
same,interaction score,Sfk1,0.219
same,interaction score,Osh2,0.0609
same,interaction score,Las17,0.367
same,interaction score,Hsp104,0.771
same,interaction score,Myo5,0.763
same,interaction score,Sac6,0.766
same,interaction score,Nap1,0.514
same,interaction score,Pan1,0.616
same,interaction score,Mid2,0.79
same,interaction score,Pfk1,0.874
same,interaction score,Sla2,0.341
same,interaction score,Rvs167,0.0148
Myo5 with SH3 swap-optMyo3 (from UniProt Q04439),interaction score,Ygl242c,0.944
same,interaction score,Arc15,0.903
same,interaction score,Smi1,0.562
same,interaction score,Cdc10,0.379
same,interaction score,Sla1,0.56
same,interaction score,Tif4631,0.689
same,interaction score,Arc19,0.78
same,interaction score,Ssb1,0.942
same,interaction score,Pab1,0.795
same,interaction score,Bbc1,0.767
same,interaction score,Aim21,0.767
same,interaction score,Bzz1,0.835
same,interaction score,Pkh2,0.095
same,interaction score,Vrp1,0.92
same,interaction score,Chc1,0.598
same,interaction score,Arc40,0.97
same,interaction score,Ssb2,0.935
same,interaction score,Arc18,0.88
same,interaction score,Cmd1,0.458
same,interaction score,Lsb3,0.643
same,interaction score,Srv2,0.656
same,interaction score,Cdc3,0.457
same,interaction score,Ssa1,0.91
same,interaction score,Bmh1,0.833
same,interaction score,Yor1,0.481
same,interaction score,Tdh3,0.971
same,interaction score,Syp1,0.543
same,interaction score,Hek2,0.401
same,interaction score,Ste20,0.425
same,interaction score,Sbp1,0.835
same,interaction score,Ysc84,0.475
same,interaction score,Sfk1,0.746
same,interaction score,Osh2,0.762
same,interaction score,Las17,0.879
same,interaction score,Hsp104,0.774
same,interaction score,Myo5,0.907
same,interaction score,Sac6,0.836
same,interaction score,Nap1,0.482
same,interaction score,Pan1,0.936
same,interaction score,Mid2,0.868
same,interaction score,Sla2,0.664
same,interaction score,Rvs167,0.53
